Changes are numbered by the printed parent chain. Several values for one entry are separate records, joined by “and”; a condition that tells them apart may be missing. Equal values may be shown once.
B1: mAb10964 (antibody, V domains shown)
VH: QVQLQESGPGLVKPSETLSLTCTVSGGSINNYYWIWIRQPPGKGLEWIGYIYHSGSTNYNPSLKSRVTISVDTSKNQFSLKVSSVTAADTAVYYCANMVRGVYEDDYWGQGTLVTVSS
VL: DIQMTQSPSSLSASVGDRVTITCRASQSISNYLNWYQQKPGKAPKLLIFAASSLRSGVPSRFSGSGSGTDFTLTISSLHPEDFATYYCQQNYNTPLTFGPGTKVDIKR
B2: mAb10923 (antibody, V domains shown)
VH: QVQLVQSGAEVKKPGASVKVSCKASGYTFINYYIHWVRQAPGQGLEWMGWINPNSGGTNYAQKFQGRVTMTRDTSISTAYMELSRLRSDDTAVYYCAIITIFGVVTWFDPWGQGTLVTVSS
VL: not shown
B3: mAb10984 (antibody, V domains shown)
VH: EVQLVESGGGLVQPGGSLRLSCAASGLTVNRNYMSWVRQAPGKGLEWVSLIYSGGSTYYADSVKGRFTISRDNSKNTLYLQMNSLRLEDTAVYYCARGELGIPYGMDVWGQGTTVTVSS
VL: QSVLTQPPSVSAAPGQKVTISCSGSSSNIGNNYVSWYQQLPGTAPKLLIYDNNKRPSGIPDRFSGSKSGTSATLGITGLQTGDEADYYCGTWDSSLSAGVFGGGTKLTVLG
B4: mAb10913 (antibody, V domains shown)
VH: EVQLVESGGGLVQPGGSLRLSCAASGFTFRNYEMNWVRQAPGKGLEWVSYITSSGSTMYYADSVKGRFTISRDNAKNSLYLQMNSLRAEDTAVYYCARDGFYYYYAMDVWGQGTTVTVSS
VL: QSVLTQPPSVSAAPGQKVTISCSGSSSNIGNNYVSWYQQLPGTAPKLLIYDNNKRPSGIPDRFSGSKSGTSATLGITGLQTGDEADYYCGTWDSSLSVGRVFGTGTKVTVLG
B5: mAb10915 (antibody, V domains shown)
VH: EVQLVESGGGLVQPGGSLRLSCAASGFTVSSNYMNWVRQAPGKGLEWVSVIYSGGSTFYADSVKGRFTISRHNSKNTLYLQMNSLRPEDTAVYYCARDLGGYFDYWGQGTLVTVSS
VL: not shown
B6: mAb10932 (antibody, V domains shown)
VH: EVQLVESGGGLVQSGGSLRLSCAASGLTVSSNYMSWVRQAPGKGLEWVSVIYSGGSTFYSDSVKGRFTISRHNSKNTLYLQMNSLRAEDTAVYYCARARGDAFDIWGQGTMVTVSS
VL: not shown
B7: mAb10934 (antibody, V domains shown)
VH: not shown
VL: DIQMTQSPSSLSASVGDRVTITCQASQDIWNYINWYQQKPGKAPKLLIYDASNLKTGVPSRFSGSGSGTDFTFTISSLQPEDIATYYCQQHDDLPPTFGQGTKVEIKR
B8: mAb10935 (antibody, V domains shown)
VH: EVQLVESGGGLVQPGGSLRLSCAASGFTVSSNYMSWVRQAPGKGLEWVSLIYSGGSTYYADSVKGRFTISRHNSKNTLYLQMNSLRSEDTAVYYCARVPLGDYYYGMDVWGQGTTVTVSS
VL: B7 VL with W30N, N31K, I33L, K55E, H91S, D93N, P96L, Q100G
B9: mAb10954 (antibody, V domains shown)
VH: EVQLVESGGGLVQPGGSLRLSCAASGITVSSNYMSWVRQAPGKGLEWVSLIYSGGSTYYADSVKGRFTISRDNSKNTLYLQMNSLRVEDTAVYYCARDHGMAAAGYNYWGQGTLVTVSS
VL: B7 VL with W30N, N31K, I33L, K55E, S76N, I83F, Y87F, H91Y, D93N, T97A
B10: mAb10938 (antibody, V domains shown)
VH: EVQLVESGGGLVQPGGSLRLSCAVSGFTVSSNYMSWVRQAPGKGLEWVSLIYSGGSTFYADSVKGRFTISRHNSKNTLYLQMNSLRAEDTAVYYCAREGGYSYDYNYWGQGTLVTVSS
VL: B7 VL with W30R, I33L, K55E, S65I, H91Y, D93N, P96I, K103R, V104L
B11: mAb10967 (antibody, V domains shown)
VH: EVQLVESGGGLVQPGGSLRLSCAASGFTVSSNYMSWVRQAPGKGLEWVSVIYPGGSTFYADSVKGRFTISRDNSKNTLYLQMNSLRAEDTAVYYCARDQRDFAWGQGTLVTVSS
VL: B7 VL with W30S, I33L, K55E, S77G, H91Y, D93N, K103R, V104L
B12: mAb10955 (antibody, V domains shown)
VH: EVQLVESGGGLVQPGGSLRVSCAASGFTVSRNYMSWVRQAPGKGLEWVSVIYSGGSTFYADSVKGRFTISRDNSKNTLYLQMNSLRAEDTAIYYCARYIPRFDPWGQGTLVTVSS
VL: B7 VL with W30S, I33L, Y36F, K42R, K55E, H91Y, D93N, P96I, K103R, V104L
B13: mAb10921 (antibody, V domains shown)
VH: EVQLVESGGGLVQPGGSLRLSCAASGITVSSNYMSWVRQAPGKGLEWVSVIYSGGSTFYADSVKGRFTISRHNSKNTLYLQMNSLRAEDTAVYYCARERNFDAFDIWGQGTMVTVSS
VL: DIQMTQSPSSVSASVGDRVTITCRASQGISSWLAWYQQKPGKAPKLLIYAASSLQSGVPSRFSGSGSGTDFTLTISSLQPEDFATYYCQQANSFPLFTFGPGTKVDIKR
B14: mAb10920 (antibody, V domains shown)
VH: QVQLVESGGGVVQPGRSLRLSCAASGFTFSYYGMHWVRQAPGKGLEWVAVIWYDGSNKFYADSVKGRFTISRDNSKNTLYLQMNSLRAEDTAVYYCAAARPGYYYGMDVWGQGTTVTVSS
VL: DIQMTQSPSSLSASVGDRVTITCRASQGISNYLAWFQQKPGKAPNSLIYAASSLQRGVPSKFSGSGSGTDFTLTISSLQPEDFATYYCQQYNSYPRTFGQGTKVEIKR
B15: mAb10939 (antibody, V domains shown)
VH: EVQLVESGGGLVQPGGSLRLSCAASGLTVSSNYMNWVRQVPGKGLEWVSVIYSGGSKFYVDSVKGRFTISRHNSKNTLYLQMNSLRPEDTAVYYCTRDAQYYGMDVWGQGTTVTVSS
VL: DIQMTQSPSSLSASVGDRVTITCRASQSISTYLHWYQQKPGEAPKLLIYAASSLQSGVPSRFSGSGSGTDFTLTISSLQPEDFATYYCQQSYSTPPEIFGQGTKLEIKR
B16: mAb10965 (antibody, V domains shown)
VH: EVQLVESGGGLIQPGGSLRLSCAASVFTVSYNYMSWVRQAPGKGLEWVSVIYSGGSTYYADSVKGRFTISRDNSKNTLYLQMNSLRAEDTAVYYCARALPGWGGSFEYFDYWGQGTLVTVSS
VL: not shown
B17: mAb10971 (antibody, V domains shown)
VH: EVQLVESGGGLIQPGGSLRLSCAASGVTVSSNYMSWVRQAPGKGLEWVSVIYSGGSTFYSDSVKGRFSISRDNSKNTLYLQMNSLRAEDTAVYYCARDLYYYGMDVWGQGTTVTVSS
VL: DIQLTQSPSFLSASVGDRVTITCRASQGISTYLAWYQQKPGKAPKLLIYAASTLQSGVPSRFSGSGSGTEFTLTISSLQPEDFATYYCQQLDSYPGLTFGGGTKVEIKR
B18: mAb10936 (antibody, V domains shown)
VH: QVQLVESGGGVVQPGRSLRLSCAASGFTFRNYGMHWVRQAPGKGLEWVSVIWYDGSNRYYADSVKGRFTISRDTSKNTLYLQMNSLRAEDTAVYYCARDPPITGTTGGDAFDIWGQGTMVTVSS
VL: not shown
B19: mAb10937 (antibody, V domains shown)
VH: QITLKESGPTLVKPTQTLTLTCTFSGFSLSTNVVGVGWIRQPPGKALEWLALIYWNDDKRYSPSLKSRLTITKDTSKNQVVLTMTNMDPVDTATYYCAHGPTGDYFDYWGQGTLVTVSS
VL: not shown
B20: mAb10966 (antibody, V domains shown)
VH: EVQLVESGGGLVQPGGSLRLSCAASGLTVSSNYMSWVRQAPGKGLEWVSVIYSGGSTFYADSVKGRFTISRDNSKNTLYLQMNSLRPEDTAVYYCAREGRIAATGYGMDVWGQGTTVTVSS
VL: not shown
B21: mAb10930 (antibody, V domains shown)
VH: EVQLVESGGGLVQPGRSLRLSCAASGFTFDDYAMYWVRQAPGKGLEWVSGISWNSGSIGYADSVKGRFTISRDNAKNSLYLQMNSLRAADTALYYCAKDKDWNSRGYYYYGMDVWGQGTTVTVSS
VL: not shown
B22: mAb10914 (antibody, V domains shown)
VH: EVQLVESGGGLVQPGGSLRLSCAASGLIVSRNYMIWVRQAPGKGLEWVSVIYSGGSTFYADSVKGRFTISRHNSKNTLYLQMNSLRAEDTAVYYCARDLGTGGMDVWGQGTTVTVSS
VL: DIQLTQSPSFLSASVGDRVTITCWASQGISSYLAWYQQKPGKAPKLLIYAASTLQSGVPSRFSGSGSGTEFTLTISSLQPEDFATYYCQQLNSYPLTFGGGTKVEIKR
B23: mAb10957 (antibody, V domains shown)
VH: B17 VH with I12V, S60A, S68T, Y79F, A87I, Y100G, Y101P
VL: B17 VL with T31S, E70Q, T72I, D92N, L97F, G101P, E106D
B24: mAb10956 (antibody, V domains shown)
VH: B17 VH with I12V, V27L, S60A, S68T, Y100I, Y101K
VL: not shown
B25: mAb10982 (antibody, V domains shown)
VH: EVQLVESGGGLVQPGGSLRLSCAASGLTVSSNYMSWVRQAPGKGLEWVSVIYSGGTTYYADSVKGRFTISRHNSKNTLSLQMNSLRAEDTAVYYCARGEGANYYGMDVWGQGTTVTVSS
VL: QSVLTQPPSVSGAPGQRVTISCTGSSSNIGTGYDVHWYQQLPGTAPKLLIYGNSNRPSGVPDRFSGSKSGTSASLAITGLQAEDEADYYCQSYDSSLSGYVVFGGGTKLTVLG
B26: mAb10985 (antibody, V domains shown)
VH: EVQLVESGGGLVQPGRSLRLSCAASGFTFDDYAMHWVRQAPGKGLEWVSGISWNRGSIGYADSVKGRFTISRDNAKNSLYLQMSSLRAEDTALYYCAKDGERWDSVVVPSARNGMDVWGQGTTVTVSS
VL: B25 VL with T31A, Y100S, V101Y, G105T, L109V

Target: SARS-COV-2 Spike protein receptor binding domain (amino acids Arg319-Phe541) expressed with the Fc p (SARS-CoV-2)

Row | Binder | IC50
1 | B1 | 0.0683 nM and 0.0625 nM
2 | B2 | 0.149 nM and 0.184 nM
3 | B3 | 0.0775 nM
4 | B4 | 0.217 nM
5 | B5 | 0.321 nM
6 | B6 | 0.373 nM
7 | B7 | 0.066 nM and 0.0597 nM
8 | B8 | 0.102 nM and 0.0694 nM
9 | B9 | 0.0711 nM
10 | B10 | 0.275 nM
11 | B11 | 0.28 nM
12 | B12 | 0.141 nM
13 | B13 | 0.433 nM and 0.507 nM
14 | B14 | 0.338 nM and 0.139 nM
15 | B15 | 0.175 nM and 0.263 nM
16 | B16 | 0.213 nM
17 | B17 | 0.149 nM
18 | B18 | 0.0875 nM and 0.071 nM
19 | B19 | 0.0649 nM
20 | B20 | 0.16 nM
21 | B21 | 0.282 nM
22 | B22 | 0.98 nM
23 | B23 | 0.169 nM
24 | B24 | 0.185 nM
25 | B25 | 0.116 nM
26 | B26 | 0.0696 nM and 0.0411 nM
